From patent publication US20040101829A1 (UNIVERSITY OF IOWA RESEARCH FOUNDATION, published 2004)

B1: murine CD81 on parental (control) mouse 3T3 cells (receptor, UniProt P35762 1-236, looked up)
chain: MGVEGCTKCIKYLLFVFNFVFWLAGGVILGVALWLRHDPQTTSLLYLELGNKPAPNTFYVGIYILIAVGAVMMFVGFLGCYGAIQESQCLLGTFFTCLVILFACEVAAGIWGFVNKDQIAKDVKQFYDQALQQAVMDDDANNAKAVVKTFHETLNCCGSNALTTLTTTILRNSLCPSGGNILTPLLQQDCHQKIDELFSGKLYLIGIAAIVVAVIMIFEMILSMVLCCGIRNSSVY
notes: whole, on cells; also called control 3T3 cells
B2: human low density lipoprotein receptor (LDLr) on MOLT-4 cells (receptor)
chain: not shown
notes: whole, on cells; also called human LDLr; hLDLr
B3: Purified recombinant HCV envelope glycoprotein E2 (Ala 384-Lys 715) (other)
chain: ETHVTGGSAGHTVSGFVSLLAPGAKQNVQLINTNGSWHLNSTALNCNDSLNTGWLAGLFYHHKFNSSGCPERLASCRPLTDFDQGWGPISYANGSGPDQRPYCWHYPPKPCGIVPAKSVCGPVYCFTPSPVVVGTTDRSGAPTYSWGENDTDVFVLNNTRPPLGNWFGCTWMNSTGFTKVCGAPPCVIGGAGNNTLHCPTDCFRKHPDATYSRCGSGPWITPRCLVDYPYRLWHYPCTINYTIFKIRMYVGGVEHRLEAACNWTRGERCDLEDRDRSELSPLLLTTTQWQVLPCSFTTLPALSTGLIHLHQNIVDVQYLYGVGSSIASWAIK
notes: also called HCV E2; HCV-E2

Tests used:
[1] = target: B3; assay: flow cytometry, recombinant E2 on mouse 3T3 cells expressing only murine CD81
[2] = target: T1, apoprotein B (apoB100), delipidized protein (human, UniProt P04114 28-4563); assay: flow cytometry on MOLT-4 cells, cell-bound apoB detected with goat polyclonal antibody
T1 construct: also called apo-B delipidized protein; apoprotein apoB100

[3] = target: T1, apoprotein B (apoB100), delipidized …; assay: flow cytometry on MOLT-4 cells incubated with E2, apo-B delipidized protein and E2/apoB; cell-bound E2 detected with antibody 108

T1 sequence (P04114 28-4563 limits assumed): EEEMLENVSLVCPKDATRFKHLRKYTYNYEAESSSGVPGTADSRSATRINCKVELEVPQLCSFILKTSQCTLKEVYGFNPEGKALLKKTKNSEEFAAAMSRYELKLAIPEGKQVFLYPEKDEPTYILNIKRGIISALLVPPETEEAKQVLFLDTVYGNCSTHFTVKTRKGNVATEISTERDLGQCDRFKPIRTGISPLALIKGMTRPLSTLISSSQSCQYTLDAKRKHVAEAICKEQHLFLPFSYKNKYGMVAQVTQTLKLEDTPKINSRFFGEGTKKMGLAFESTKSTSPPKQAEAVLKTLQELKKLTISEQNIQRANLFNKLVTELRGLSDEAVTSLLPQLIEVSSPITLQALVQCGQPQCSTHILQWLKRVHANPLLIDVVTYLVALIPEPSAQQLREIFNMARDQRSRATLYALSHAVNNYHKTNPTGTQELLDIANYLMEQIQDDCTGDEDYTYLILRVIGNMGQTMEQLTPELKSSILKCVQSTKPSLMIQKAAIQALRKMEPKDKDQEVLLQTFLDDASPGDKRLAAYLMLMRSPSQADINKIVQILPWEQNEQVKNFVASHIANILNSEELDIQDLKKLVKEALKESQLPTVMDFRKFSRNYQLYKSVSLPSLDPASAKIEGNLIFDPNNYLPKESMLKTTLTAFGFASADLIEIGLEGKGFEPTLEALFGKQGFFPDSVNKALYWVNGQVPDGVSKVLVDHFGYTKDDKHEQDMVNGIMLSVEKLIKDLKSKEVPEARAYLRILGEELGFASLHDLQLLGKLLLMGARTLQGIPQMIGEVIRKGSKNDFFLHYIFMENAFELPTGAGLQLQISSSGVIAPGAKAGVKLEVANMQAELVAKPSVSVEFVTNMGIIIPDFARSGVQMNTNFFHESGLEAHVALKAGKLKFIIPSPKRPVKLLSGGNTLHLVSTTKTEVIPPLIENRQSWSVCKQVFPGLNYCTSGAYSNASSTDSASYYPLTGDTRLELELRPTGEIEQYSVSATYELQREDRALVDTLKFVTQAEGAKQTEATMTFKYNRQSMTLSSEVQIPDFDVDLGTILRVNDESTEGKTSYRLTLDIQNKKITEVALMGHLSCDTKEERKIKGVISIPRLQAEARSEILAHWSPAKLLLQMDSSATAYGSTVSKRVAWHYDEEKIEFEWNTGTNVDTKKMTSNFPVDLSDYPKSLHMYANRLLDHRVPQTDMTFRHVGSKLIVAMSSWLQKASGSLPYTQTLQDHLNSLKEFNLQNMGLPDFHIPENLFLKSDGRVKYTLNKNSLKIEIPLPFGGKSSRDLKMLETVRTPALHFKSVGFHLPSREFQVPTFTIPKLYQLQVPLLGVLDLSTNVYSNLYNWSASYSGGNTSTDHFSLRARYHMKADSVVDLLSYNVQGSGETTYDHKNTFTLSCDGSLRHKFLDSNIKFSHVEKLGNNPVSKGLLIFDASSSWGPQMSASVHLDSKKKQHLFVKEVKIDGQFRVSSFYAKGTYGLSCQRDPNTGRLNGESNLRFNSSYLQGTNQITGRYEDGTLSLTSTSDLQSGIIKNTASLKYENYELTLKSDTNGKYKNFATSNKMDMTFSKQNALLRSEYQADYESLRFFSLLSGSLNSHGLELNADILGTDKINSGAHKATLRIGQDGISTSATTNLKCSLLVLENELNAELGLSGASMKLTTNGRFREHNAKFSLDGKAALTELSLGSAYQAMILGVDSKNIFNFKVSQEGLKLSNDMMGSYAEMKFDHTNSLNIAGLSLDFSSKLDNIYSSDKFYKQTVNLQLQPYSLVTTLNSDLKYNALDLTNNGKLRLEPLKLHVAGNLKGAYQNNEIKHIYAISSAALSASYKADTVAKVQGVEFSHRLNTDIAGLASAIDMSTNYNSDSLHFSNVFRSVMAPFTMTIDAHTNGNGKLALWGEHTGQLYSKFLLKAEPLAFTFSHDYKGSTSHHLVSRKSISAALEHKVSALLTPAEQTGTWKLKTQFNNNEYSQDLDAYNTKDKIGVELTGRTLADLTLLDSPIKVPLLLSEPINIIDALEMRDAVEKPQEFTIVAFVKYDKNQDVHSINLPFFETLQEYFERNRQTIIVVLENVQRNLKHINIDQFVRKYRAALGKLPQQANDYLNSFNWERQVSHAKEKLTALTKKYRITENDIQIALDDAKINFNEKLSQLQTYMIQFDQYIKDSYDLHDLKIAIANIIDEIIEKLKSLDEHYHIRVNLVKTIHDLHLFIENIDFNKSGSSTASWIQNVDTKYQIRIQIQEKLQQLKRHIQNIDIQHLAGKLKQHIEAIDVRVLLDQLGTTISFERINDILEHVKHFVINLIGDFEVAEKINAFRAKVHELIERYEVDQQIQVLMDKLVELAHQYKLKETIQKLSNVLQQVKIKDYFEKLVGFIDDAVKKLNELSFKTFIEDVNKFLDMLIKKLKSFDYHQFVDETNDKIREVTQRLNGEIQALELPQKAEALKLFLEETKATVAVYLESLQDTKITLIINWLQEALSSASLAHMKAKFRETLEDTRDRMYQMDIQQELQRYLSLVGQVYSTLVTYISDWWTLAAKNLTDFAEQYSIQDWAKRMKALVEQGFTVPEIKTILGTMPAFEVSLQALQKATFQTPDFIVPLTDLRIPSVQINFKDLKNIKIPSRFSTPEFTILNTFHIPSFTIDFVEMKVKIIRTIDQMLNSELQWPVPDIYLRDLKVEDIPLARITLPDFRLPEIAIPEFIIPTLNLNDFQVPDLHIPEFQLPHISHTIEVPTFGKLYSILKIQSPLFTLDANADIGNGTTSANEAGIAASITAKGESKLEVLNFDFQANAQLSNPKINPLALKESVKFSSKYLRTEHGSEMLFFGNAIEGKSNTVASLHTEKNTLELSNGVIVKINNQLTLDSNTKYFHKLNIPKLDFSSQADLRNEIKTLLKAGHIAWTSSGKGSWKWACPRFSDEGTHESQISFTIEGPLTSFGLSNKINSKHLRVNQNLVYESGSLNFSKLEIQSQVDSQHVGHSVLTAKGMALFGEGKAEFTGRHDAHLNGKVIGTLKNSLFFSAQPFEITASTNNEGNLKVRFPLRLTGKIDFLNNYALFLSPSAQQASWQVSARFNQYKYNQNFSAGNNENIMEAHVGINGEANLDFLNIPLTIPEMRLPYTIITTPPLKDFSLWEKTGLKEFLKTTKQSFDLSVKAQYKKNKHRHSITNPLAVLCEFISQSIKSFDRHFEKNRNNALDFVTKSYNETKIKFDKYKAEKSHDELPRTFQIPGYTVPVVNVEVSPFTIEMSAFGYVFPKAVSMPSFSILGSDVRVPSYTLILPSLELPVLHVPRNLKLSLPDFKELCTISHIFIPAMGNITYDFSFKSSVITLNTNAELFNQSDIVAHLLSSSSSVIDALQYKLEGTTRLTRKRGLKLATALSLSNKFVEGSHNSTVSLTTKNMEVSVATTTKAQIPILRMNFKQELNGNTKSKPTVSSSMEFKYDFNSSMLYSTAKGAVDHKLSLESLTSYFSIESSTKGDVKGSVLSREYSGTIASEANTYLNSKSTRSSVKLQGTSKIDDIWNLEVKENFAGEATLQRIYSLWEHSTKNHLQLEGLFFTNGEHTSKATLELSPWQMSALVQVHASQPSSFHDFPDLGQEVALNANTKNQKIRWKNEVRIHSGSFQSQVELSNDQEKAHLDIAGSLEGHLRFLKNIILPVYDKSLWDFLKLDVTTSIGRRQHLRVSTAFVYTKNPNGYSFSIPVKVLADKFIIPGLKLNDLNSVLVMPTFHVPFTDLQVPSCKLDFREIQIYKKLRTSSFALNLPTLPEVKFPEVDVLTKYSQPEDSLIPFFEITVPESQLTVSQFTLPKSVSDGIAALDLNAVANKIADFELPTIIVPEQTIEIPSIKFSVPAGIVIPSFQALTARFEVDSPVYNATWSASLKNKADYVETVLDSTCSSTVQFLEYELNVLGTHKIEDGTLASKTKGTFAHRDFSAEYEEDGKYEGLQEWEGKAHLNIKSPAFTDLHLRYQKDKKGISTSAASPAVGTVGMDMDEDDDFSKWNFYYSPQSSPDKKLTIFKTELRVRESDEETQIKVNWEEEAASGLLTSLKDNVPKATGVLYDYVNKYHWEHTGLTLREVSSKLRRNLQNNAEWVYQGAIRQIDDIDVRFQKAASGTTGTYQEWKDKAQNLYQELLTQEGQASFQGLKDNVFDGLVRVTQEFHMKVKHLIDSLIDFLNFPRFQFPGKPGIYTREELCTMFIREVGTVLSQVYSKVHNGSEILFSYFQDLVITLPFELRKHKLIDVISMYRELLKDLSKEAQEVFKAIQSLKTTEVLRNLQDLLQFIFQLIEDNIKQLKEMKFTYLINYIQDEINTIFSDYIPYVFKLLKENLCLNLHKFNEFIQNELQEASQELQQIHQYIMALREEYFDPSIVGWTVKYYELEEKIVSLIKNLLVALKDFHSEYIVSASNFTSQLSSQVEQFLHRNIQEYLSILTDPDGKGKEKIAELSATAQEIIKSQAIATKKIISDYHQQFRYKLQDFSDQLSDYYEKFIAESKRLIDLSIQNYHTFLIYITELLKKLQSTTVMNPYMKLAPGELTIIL

B1: no binding [1].

B2: binds [2].

B3: no binding [3].
